Source: PMC5999986

Target: DosRK182R (Mycobacterium tuberculosis, UniProt P9WMF9 1-217, K182R)
Test: EMSA; 4, 8, 16 uM protein; 20 mM MgCl2; […]; ITC: 20 mM Tris pH 8.0, 200 mM NaCl, 25 C, […]
Settings: protein: recombinant; tags: His6 (pET28a); chain copies: 2; label: none (ethidium bromide stain); blunt

B1: 20-bp DosR regulon consensus DNA (EM1/EM2) (dsDNA)
DNA 1: TTGGGGACTAAAGTCCCTAA
DNA 2: TTAGGGACTTTAGTCCCCAA
  binding result: binds
